Experimental data from the supplement of paper PMC9112550, “Optimization of the antimicrobial peptide Bac7 by deep mutational scanning” (BMC Biology, 2022).

test system: Escherichia coli TOP10; test: shrunken log2 fold change of peptide-encoding DNA abundance (4.5 h post-induction vs induction); higher = less antimicrobial activity (less host growth inhibition); details: time post-induction: 4.5 h; library: site-saturation at positions 5, 18, 19, 20
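Further: peptides expressed intracellularly from a pBAD plasmid library in pooled LB shake-flask culture, induced with 0.3% L-arabinose, DNA abundance read by NGS, three biological replicates, DESeq2 with apeglm shrinkage.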

Sequence	shrunken log2 fold change
RRIRCRPPRLPRPRPRPVEVPRP	-0.0243
RRIRARPPRLPRPRPRPNYEPRP	-0.22
RRIRDRPPRLPRPRPRPFRNPRP	-0.0013
RRIRHRPPRLPRPRPRPLFMPRP	-0.492
RRIRFRPPRLPRPRPRPYRAPRP	-0.353
RRIRTRPPRLPRPRPRPSIGPRP	-0.272
RRIRVRPPRLPRPRPRPMLQPRP	0.154
RRIRQRPPRLPRPRPRPAEPPRP	0.157
RRIRKRPPRLPRPRPRPNVSPRP	0.106
RRIRCRPPRLPRPRPRPHGHPRP	-0.167
RRIRDRPPRLPRPRPRPELCPRP	-0.0337
RRIRIRPPRLPRPRPRPLGRPRP	0.39
RRIRPRPPRLPRPRPRPANFPRP	-0.0737
RRIRWRPPRLPRPRPRPNCKPRP	-0.0223
RRIRHRPPRLPRPRPRPSHWPRP	-0.288
RRIRFRPPRLPRPRPRPSCQPRP	-0.245
RRIRERPPRLPRPRPRPGFWPRP	0.407
RRIRYRPPRLPRPRPRPKNAPRP	-0.186
RRIRVRPPRLPRPRPRPMYEPRP	-0.774
RRIRMRPPRLPRPRPRPVKLPRP	-0.0873
RRIRERPPRLPRPRPRPNPPPRP	0.181
RRIRFRPPRLPRPRPRPVWLPRP	-0.0732
RRIRPRPPRLPRPRPRPTSAPRP	0.156
RRIRKRPPRLPRPRPRPKDFPRP	-0.0746
RRIRIRPPRLPRPRPRPDRQPRP	0.0357

Sequence	shrunken log2 fold change
RRIRCRPPRLPRPRPRPGAAPRP	0.956
RRIRERPPRLPRPRPRPSICPRP	-0.151
RRIRIRPPRLPRPRPRPMPAPRP	0.0451
RRIRVRPPRLPRPRPRPGWPPRP	0.433
RRIRARPPRLPRPRPRPHWAPRP	-0.0191
RRIRYRPPRLPRPRPRPFCKPRP	-1.59
RRIRSRPPRLPRPRPRPDIQPRP	-0.274
RRIRNRPPRLPRPRPRPSTKPRP	-0.0203
RRIRKRPPRLPRPRPRPSQMPRP	0.247
RRIRWRPPRLPRPRPRPHQKPRP	0.0146
RRIRPRPPRLPRPRPRPVVAPRP	0.578
RRIRNRPPRLPRPRPRPPVRPRP	0.489
RRIRNRPPRLPRPRPRPSRSPRP	-0.076
RRIRPRPPRLPRPRPRPSHEPRP	0.0992
RRIRERPPRLPRPRPRPRDWPRP	0.311
RRIRRRPPRLPRPRPRPNRFPRP	0.156
RRIRPRPPRLPRPRPRPRCLPRP	-0.0858
RRIRPRPPRLPRPRPRPGQYPRP	0.0431
RRIRARPPRLPRPRPRPEGNPRP	0.295
RRIRERPPRLPRPRPRPSLGPRP	-0.143
RRIRNRPPRLPRPRPRPMYVPRP	0.0786
RRIRRRPPRLPRPRPRPKELPRP	0.166
RRIRVRPPRLPRPRPRPLECPRP	-0.041
RRIRGRPPRLPRPRPRPAQNPRP	0.81
RRIRTRPPRLPRPRPRPRQQPRP	0.349

Sequence	shrunken log2 fold change
RRIRRRPPRLPRPRPRPTDKPRP	0.0418
RRIRKRPPRLPRPRPRPFPEPRP	0.273
RRIRYRPPRLPRPRPRPIFYPRP	-0.638
RRIRYRPPRLPRPRPRPANIPRP	-0.0107
RRIRLRPPRLPRPRPRPFWMPRP	-0.0876
RRIRIRPPRLPRPRPRPCSIPRP	-0.012
RRIRKRPPRLPRPRPRPYSFPRP	-0.119
RRIRSRPPRLPRPRPRPWFYPRP	-0.172
RRIRHRPPRLPRPRPRPYSIPRP	-9.97e-05
RRIRIRPPRLPRPRPRPLSFPRP	-0.687
RRIRPRPPRLPRPRPRPAQVPRP	-0.0714
RRIRCRPPRLPRPRPRPPIMPRP	-0.0556
RRIRGRPPRLPRPRPRPYHYPRP	-0.149
RRIRKRPPRLPRPRPRPVPEPRP	0.151
RRIRFRPPRLPRPRPRPNTVPRP	-0.363
RRIRSRPPRLPRPRPRPIILPRP	-0.617
RRIRNRPPRLPRPRPRPGHWPRP	0.291
RRIRLRPPRLPRPRPRPPWWPRP	0.695
RRIRKRPPRLPRPRPRPWQDPRP	-0.0361
RRIRVRPPRLPRPRPRPVGLPRP	0.216
RRIRIRPPRLPRPRPRPGCCPRP	-0.04
RRIRMRPPRLPRPRPRPMGFPRP	-0.0135
RRIRIRPPRLPRPRPRPVLKPRP	-0.234
RRIRDRPPRLPRPRPRPDMCPRP	-0.0138
RRIRNRPPRLPRPRPRPHWDPRP	-0.136

Sequence	shrunken log2 fold change
RRIRRRPPRLPRPRPRPNKVPRP	-0.213
RRIRQRPPRLPRPRPRPGDLPRP	0.01
RRIRWRPPRLPRPRPRPNFGPRP	0.174
RRIRLRPPRLPRPRPRPSFNPRP	-0.529
RRIRYRPPRLPRPRPRPSWPPRP	-0.613
RRIRFRPPRLPRPRPRPAYFPRP	-0.108
RRIRFRPPRLPRPRPRPVWVPRP	0.0313
RRIRVRPPRLPRPRPRPEGFPRP	0.0396
RRIRGRPPRLPRPRPRPWINPRP	-0.137
RRIRMRPPRLPRPRPRPWQRPRP	0.179
RRIRCRPPRLPRPRPRPFKDPRP	-0.54
RRIRERPPRLPRPRPRPMFYPRP	-0.0786
RRIRDRPPRLPRPRPRPMGKPRP	3.67
RRIRARPPRLPRPRPRPMSCPRP	-0.114
RRIRNRPPRLPRPRPRPKTRPRP	0.138
RRIRRRPPRLPRPRPRPFTNPRP	0.103
RRIRLRPPRLPRPRPRPSDVPRP	-0.533
RRIRNRPPRLPRPRPRPKKSPRP	0.129
RRIRFRPPRLPRPRPRPDTCPRP	-0.21
RRIRQRPPRLPRPRPRPQLYPRP	0.119
RRIRARPPRLPRPRPRPWIIPRP	-0.0127
RRIRKRPPRLPRPRPRPMWHPRP	-0.183
RRIRPRPPRLPRPRPRPTPGPRP	0.533
RRIRPRPPRLPRPRPRPHMQPRP	0.151
RRIRERPPRLPRPRPRPECAPRP	0.586

Sequence	shrunken log2 fold change
RRIRMRPPRLPRPRPRPQPTPRP	0.868
RRIRMRPPRLPRPRPRPQTHPRP	0.318
RRIRYRPPRLPRPRPRPAVNPRP	0.063
RRIRVRPPRLPRPRPRPIGMPRP	0.211
RRIRERPPRLPRPRPRPMVLPRP	0.104
RRIRHRPPRLPRPRPRPLNCPRP	-0.134
RRIRPRPPRLPRPRPRPLSPPRP	-0.113
RRIRVRPPRLPRPRPRPCSAPRP	0.0399
RRIRGRPPRLPRPRPRPPGPPRP	0.821
RRIRHRPPRLPRPRPRPKFMPRP	-0.497
RRIRLRPPRLPRPRPRPLNPPRP	-0.0831
RRIRSRPPRLPRPRPRPMNIPRP	-0.196
RRIRMRPPRLPRPRPRPEPCPRP	1.13
RRIRPRPPRLPRPRPRPWRAPRP	0.185
RRIRSRPPRLPRPRPRPKCWPRP	0.359
RRIRMRPPRLPRPRPRPLYVPRP	-0.111
RRIRDRPPRLPRPRPRPCYTPRP	-0.295
RRIRMRPPRLPRPRPRPSAYPRP	0.319
RRIRSRPPRLPRPRPRPIFKPRP	-0.186
RRIRCRPPRLPRPRPRPQQVPRP	-0.29
RRIRIRPPRLPRPRPRPSRMPRP	-0.271
RRIRMRPPRLPRPRPRPLDQPRP	1.12
RRIRDRPPRLPRPRPRPWPLPRP	0.00172
RRIRTRPPRLPRPRPRPSRAPRP	0.271
RRIRHRPPRLPRPRPRPWILPRP	-0.223

Sequence	shrunken log2 fold change
RRIRIRPPRLPRPRPRPTHCPRP	-0.00414
RRIRFRPPRLPRPRPRPHGYPRP	-0.707
RRIRKRPPRLPRPRPRPYFAPRP	-0.0674
RRIRGRPPRLPRPRPRPVWQPRP	0.174
RRIRPRPPRLPRPRPRPQAIPRP	0.186
RRIRVRPPRLPRPRPRPYICPRP	-0.468
RRIRNRPPRLPRPRPRPLIEPRP	-0.284
RRIRDRPPRLPRPRPRPANFPRP	0.0245
RRIRIRPPRLPRPRPRPDTLPRP	-0.658
RRIRERPPRLPRPRPRPNHRPRP	-0.101
RRIRVRPPRLPRPRPRPATTPRP	0.0611
RRIRERPPRLPRPRPRPENVPRP	-0.0141
RRIRHRPPRLPRPRPRPPVWPRP	0.156
RRIRHRPPRLPRPRPRPFNDPRP	-0.01
RRIRLRPPRLPRPRPRPRDFPRP	-0.206
RRIRLRPPRLPRPRPRPSHEPRP	0.031
RRIRSRPPRLPRPRPRPTCDPRP	0.109
RRIRVRPPRLPRPRPRPMDTPRP	-0.171
RRIRVRPPRLPRPRPRPIYKPRP	-0.535
RRIRQRPPRLPRPRPRPRFIPRP	-0.398
RRIRGRPPRLPRPRPRPGGHPRP	0.779
RRIRLRPPRLPRPRPRPKNGPRP	-0.203
RRIRIRPPRLPRPRPRPLCRPRP	-0.289
RRIRKRPPRLPRPRPRPTPKPRP	0.334
RRIRPRPPRLPRPRPRPYDGPRP	-0.7
